This passage reports KM results from patent US20220380739.

In one series the target is T1, Abz-VDVADPA-Dap (Dnp).
T1 chain: VDVADPA

In another series the target is T2, Abz-VDVADSA-Dap (Dnp).
T2 chain: VDVADSA

In another series the target is T3, Abz-VDVADGA-Dap (Dnp).
T3 chain: VDVADGA

The next series deals with T4, Abz-VDVADAA-Dap (Dnp).
T4 chain: VDVADAA

In the next series the target is T5, Abz-VDVADIA-Dap (Dnp).
T5 chain: VDVADIA

A further series addresses T6, Abz-VDVADDA-Dap (Dnp).
T6 chain: VDVADDA

Another series concerns the target T7, Abz-VDVADHA-Dap (Dnp).
T7 chain: VDVADHA

A further series deals with T8, Abz-VDVADYA-Dap (Dnp).
T8 chain: VDVADYA

Another series concerns the target T9, Abz-VDVADNA-Dap (Dnp).
T9 chain: VDVADNA

Series [1] has as its target T7AC_6H_GSGSGSG_VDVAD-hFGF2.
A further series addresses T10, Abz-VDVADMA-Dap (Dnp).
T10 chain: VDVADMA

The target of a further series is T11, Abz-VDVADLA-Dap (Dnp).
T11 chain: VDVADLA

Another series concerns the target T12, Abz-VDVADWA-Dap (Dnp).
T12 chain: VDVADWA

The target of another series is T13, Abz-VDVADEA-Dap (Dnp).
T13 chain: VDVADEA

In a further series the target is T14, Abz-VDVADTA-Dap (Dnp).
T14 chain: VDVADTA

The target of another series is T15, Abz-VDVADKA-Dap (Dnp).
T15 chain: VDVADKA

The target in another series is T16, Abz-VDVADFA-Dap (Dnp).
T16 chain: VDVADFA

The target of the next series is T17, Abz-VDVADVA-Dap (Dnp).
T17 chain: VDVADVA

The next series addresses T18, Abz-VDVADRA-Dap (Dnp).
T18 chain: VDVADRA

The target of another series is T19, Abz-VDVADQA-Dap (Dnp).
T19 chain: VDVADQA

B1: T7AC_6H_mS9ProD (protein)
chain: MLEDPERNKERKEAELQAQTAEQHHHHHHGKNHAGSPGCEESAAGKEKLPKMRLPTRSDMICGYACLKGTAAMRNTKRGSWYIEALAQVFSERACDMHVADMLVKVNALIKDREGYAPGTEFHRCKVMSEYCSTLCRHLYLFPGHPPTGSGPVCLQVKPCTPEFYQTHFQLAYRLQSRPRGLALVLSNVHFTDEKELEFRSGGDVDHSTLVTLFKLLGYDVHVLCDQTAQEMQEKLQNFAQLPAHRGTDSCIVALLSHGVEGAIYGVDGKLLQLQEVFQLFDNANCPSLQNKPKMFFIQACRGEETDRGVDQQD
For B1, the KM in the series with Abz-VDVADPA-Dap (Dnp) amounted to 100 µM; with T7AC_6H_GSG_VDSAD-hFGF2, 865 µM; with Abz-VDVADSA-Dap (Dnp), 180 µM; with Abz-VDVADGA-Dap (Dnp), 65 µM; with Abz-VDVADAA-Dap (Dnp) it was 100 µM; with Abz-VDVADIA-Dap (Dnp), 110 µM. Besides, the Michaelis constant (KM) with Abz-VDVADDA-Dap (Dnp) is 190 µM; with Abz-VDVADHA-Dap (Dnp), 170 µM; in the series with Abz-VDVADYA-Dap (Dnp), 900 µM; with Abz-VDVADNA-Dap (Dnp), 130 µM; in [1], 252 µM; in the series with Abz-VDVADMA-Dap (Dnp) it was 480 µM. Also, the KM is 400 µM with Abz-VDVADLA-Dap (Dnp); 53 µM in the series with Abz-VDVADWA-Dap (Dnp); 160 µM with Abz-VDVADEA-Dap (Dnp); 120 µM in the series with Abz-VDVADTA-Dap (Dnp); 79 µM with Abz-VDVADKA-Dap (Dnp); 329 µM with T7AC-6H-GSG-VDVAD-hFGF-2. Also, the KM is 120 µM with Abz-VDVADFA-Dap (Dnp); 100 µM in the series with Abz-VDVADVA-Dap (Dnp); 529 µM in the series with T7AC-6H-VDVAD-hFGF2; 47 µM with Abz-VDVADRA-Dap (Dnp); 120 µM in the series with Abz-VDVADQA-Dap (Dnp).
